Experiment [1] concerns the target recombinant human Bcl-xL, Δ45–84, Δ210–233 variant (human) (UniProt Q07817). The experiment in a line: fluorescence polarisation; competition: 200 nM f-BH3, 50 nM Bcl-xL, BAD forms varied 0–50 μM; room temperature.
For experiment [2], the target named is T1, recombinant human Bcl-xL, Δ45–84, Δ210–233 variant (human, UniProt Q07817-1 1-209, Δ45–84).
T1 construct: Bcl-xL, human; loop 45-84 deleted and C-terminal residues 210-233 lacking; also called soluble, recombinant Bcl-xL
The experiment is described as above. The note with it: both partners purified.

Experiment [3] has as its target T2, human pancreatic GCK (Homo sapiens, UniProt P35557).
T2 construct: hexahistidine (N); made in house; host or cells: glucokinase auxotroph BM5340(DE3)
T2 sequence (P35557 1-465): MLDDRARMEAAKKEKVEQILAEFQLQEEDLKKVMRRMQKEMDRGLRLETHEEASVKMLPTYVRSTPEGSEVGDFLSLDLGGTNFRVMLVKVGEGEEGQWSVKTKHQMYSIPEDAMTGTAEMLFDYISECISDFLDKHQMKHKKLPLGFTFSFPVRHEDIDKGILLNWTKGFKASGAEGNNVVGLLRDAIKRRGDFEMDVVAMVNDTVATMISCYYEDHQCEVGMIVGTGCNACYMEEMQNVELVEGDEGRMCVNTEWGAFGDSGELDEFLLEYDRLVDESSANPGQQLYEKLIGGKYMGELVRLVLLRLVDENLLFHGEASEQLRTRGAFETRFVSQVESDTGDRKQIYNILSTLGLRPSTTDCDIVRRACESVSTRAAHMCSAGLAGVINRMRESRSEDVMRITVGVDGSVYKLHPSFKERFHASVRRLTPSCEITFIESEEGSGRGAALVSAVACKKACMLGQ
The experiment in a line: GCK activity, G6PDH-linked assay (lab's routine assay, 25°C). In kind it is biochemical. The note with it: for Increase in GCK activity relative to unmodified / wild-type protein: only at glucose concentrations below K0.5 (3SD, 3SA), phosphorylated BAD after cleavage of GST tag. The method, then: Recombinant human pancreatic GCK containing an N-terminal hexahistidine tag was produced in the glucokinase auxotroph BM5340(DE3) and purified using a previously described procedure. TEV protease was expressed as a GST-fusion protein from a pGEX plasmid encoding the S219V variant, provided by David Waugh (Addgene plasmid 8827). Expression was induced with IPTG (1 mM) for 4 h at 30°C. Cell pellets were resuspended in Tris buffer (50 mM, pH 8.0) containing NaCl (100 mM), glycerol (10% v/v), benzamidine (1 mM) and dithiothreitol (10 mM) and lysed via French Press. Polyethyleneimine (0.1%) was added to the lysate and protein was purified on a glutathione-affinity column (GSTrap, GE Sciences). TEV protease was flash frozen and stored at -80°C for up to 1 month.
GCK activity was assayed using a glucose 6-phosphate dehydrogenase (G6PDH)-linked assay at 25°C. 50 nM GCK was assayed in buffer containing HEPES (100 mM, pH 7.4), KCl (50 mM), NADP^+ (0.5 mM), DTT (10 mM), MgCl2 (7 mM), G6PDH (1.5 U) and glucose (0–100 mM) in a total volume of […]. Addition of ATP (6 mM) initiated the reaction. Production of NADPH was measured at 340 nm. To determine the effect of BAD on GCK activity, 5 μL of BAD or buffer control was added to the reaction in a final volume of 100 μL. K0.5 values were determined by fitting to the Hill equation. The effect of BAD on GCK activity is reported as the percent rate increase at individual glucose concentrations, calculated as the average of a minimum of four rates of BAD-containing assays divided by the average of rates of BAD buffer-containing assays. The results represent the average of at least three independent preparations of pure BAD.

T1 sequence (Q07817 other isoform, or with tags, fused parts or gaps Δ45–84 | Δ45–84 | mutant): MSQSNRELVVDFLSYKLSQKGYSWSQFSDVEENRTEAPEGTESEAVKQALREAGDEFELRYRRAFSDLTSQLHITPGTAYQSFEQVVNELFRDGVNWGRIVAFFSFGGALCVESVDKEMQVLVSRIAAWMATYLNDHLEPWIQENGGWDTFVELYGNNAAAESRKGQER
Sequence of recombinant human Bcl-xL, Δ45–84, Δ210–233 variant (human) (Q07817 other isoform, or with tags, fused parts or gaps mutant): as the sequence (Q07817 other isoform, or with tags, fused parts or gaps Δ45–84 | Δ45–84 | mutant) above

In the case of “BAD following cleavage and removal of the GST tag (from UniProt Q92934 1-168) (natural protein)”, the IC50 in experiment [1] turned out to be 440 nM.

B1: S75D-S99D-S118D triple variant of BAD-GST (natural protein, human, UniProt Q92934 1-168, looked up)
chain: MFQIPEFEPSEQEDSSSAERGLGPSPAGDGPSGSGKHHRQAPGLLWDASHQQEQPTSSSHHGGAGAVEIRSRHSDYPAGTEDDEGMGEEPSPFRGRSRDAPPNLWAAQRYGRELRRMDDEFVDSFKKGLPRPKSAGTATQMRQSSSWTRVFQSWWDRNLGRGSSAPSQ
notes: BAD, human; 507 bp bad cDNA amplified from the IMAGE clone; triple phosphomimic; also called 3SD; source: E. coli BL21(DE3), purified as BAD-GST; not shown: GST, C-terminal, kept
Take B1: the IC50 in experiment [2] is more than 19000 nM.

B2: phosphorylated BAD: phosphorylated BAD after cleavage of the GST tag (protein)
chain: MFQIPEFEPSEQEDSSSAERGLGPSPAGDGPSGSGKHHRQAPGLLWDASHQQEQPTSSSHHGGAGAVEIRSRHSSYPAGTEDDEGMGEEPSPFRGRSRSAPPNLWAAQRYGRELRRMSDEFVDSFKKGLPRPKSAGTATQMRQSSSWTRVFQSWWDRNLGRGSSAPSQ
modifications: phosphoserine at 75, 99 and 118 (by PKA, as for phosphorylated BAD-GST); left off: His6, N-terminal, state not stated | GST, C-terminal, cleaved
notes: phosphorylated BAD after cleavage of the GST tag
For B2, the “Increase in GCK activity relative to unmodified / wild-type protein” value in experiment [3] is given as “to a similar extent as unmodified BAD”.

B3: 3SA: BAD-GST variant in which alanine was substituted at the three target serine residues (protein)
chain: MFQIPEFEPSEQEDSSSAERGLGPSPAGDGPSGSGKHHRQAPGLLWDASHQQEQPTSSSHHGGAGAVEIRSRHSAYPAGTEDDEGMGEEPSPFRGRSRAAPPNLWAAQRYGRELRRMADEFVDSFKKGLPRPKSAGTATQMRQSSSWTRVFQSWWDRNLGRGSSAPSQ
modifications: left off: His6, N-terminal, state not stated | GST, C-terminal, kept
notes: BAD-GST variant in which alanine was substituted at the three target serine residues
B3: the “Increase in GCK activity relative to unmodified / wild-type protein” value in experiment [3] is recorded as “to the same relative extent as wild-type BAD-GST”.

B4: S75D-S99D-S118D triple variant of BAD-GST: S75D-S99D-S118D triple variant of BAD-GST, mimics fully phosphorylated protein (protein)
chain: MFQIPEFEPSEQEDSSSAERGLGPSPAGDGPSGSGKHHRQAPGLLWDASHQQEQPTSSSHHGGAGAVEIRSRHSDYPAGTEDDEGMGEEPSPFRGRSRDAPPNLWAAQRYGRELRRMDDEFVDSFKKGLPRPKSAGTATQMRQSSSWTRVFQSWWDRNLGRGSSAPSQ
modifications: left off: His6, N-terminal, state not stated | GST, C-terminal, kept
notes: S75D-S99D-S118D triple variant of BAD-GST, mimics fully phosphorylated protein
Regarding B4, in experiment [3] (0.78 mM glucose, > 2 μM, comparable to phosphorylated BAD (15%)), the “Activation of GCK by triple variant” value is reported as “A comparable degree of activation”. Moreover, in experiment [3], the “Increase in GCK activity relative to unmodified / wild-type protein” value is recorded as “to the same relative extent as wild-type BAD-GST”.

B5: S75D-S99D double variant of BAD-GST (natural protein, human, UniProt Q92934 1-168, looked up)
chain: MFQIPEFEPSEQEDSSSAERGLGPSPAGDGPSGSGKHHRQAPGLLWDASHQQEQPTSSSHHGGAGAVEIRSRHSDYPAGTEDDEGMGEEPSPFRGRSRDAPPNLWAAQRYGRELRRMSDEFVDSFKKGLPRPKSAGTATQMRQSSSWTRVFQSWWDRNLGRGSSAPSQ
notes: BAD, human; 507 bp bad cDNA amplified from the IMAGE clone; double phosphomimic; source: E. coli BL21(DE3), purified as BAD-GST; not shown: GST, C-terminal, kept
B5: the IC50 in experiment [2] stood at 87 nM.

B6: S118D BAD-GST variant (natural protein, human, UniProt Q92934 1-168, looked up)
chain: MFQIPEFEPSEQEDSSSAERGLGPSPAGDGPSGSGKHHRQAPGLLWDASHQQEQPTSSSHHGGAGAVEIRSRHSSYPAGTEDDEGMGEEPSPFRGRSRSAPPNLWAAQRYGRELRRMDDEFVDSFKKGLPRPKSAGTATQMRQSSSWTRVFQSWWDRNLGRGSSAPSQ
notes: BAD, human; 507 bp bad cDNA amplified from the IMAGE clone; phosphomimic; also called S118D variant; BAD-GST S118D; source: E. coli BL21(DE3), purified as BAD-GST; not shown: GST, C-terminal, kept
For B6, in experiment [2], the IC50 is more than 15000 nM.

Values taken from PMC5300155, “Biochemical and biophysical investigations of the interaction between human glucokinase and pro-apoptotic BAD” (PLoS ONE, 2017).
